The text below walks through data of patent publication US20160083450A1, “HUMAN PROTEIN SCAFFOLD WITH CONTROLLED SERUM PHARMACOKINETICS” (THE REGENTS OF THE UNIVERSITY OF CALIFORNIA, priority 2009, published 2016).

On the set-up of series [1]: species or system Balb/c mice. Particulars: mouse, in vivo. As to the method: Their pharmacokinetic profile in blood was evaluated in vivo by injecting each ^131I-labeled DIII protein intravenously in Balb/c mice. Blood was drawn from the tail at eight different time points (0-72 h) and the radioactivity was counted in a gamma well counter.
The format of series [2] is physicochemical. As to the method: (§1) When dissolved in aqueous solution, the peptide precipitated. Lack of solubility in water immediately renders this peptide inappropriate for in vivo application. Prior to conjugation, the HyNic modified peptide was dissolved in dimethyl formamide (DMF) organic solvent. The purified DIM was modified to incorporate the 4FB moiety at random lysine residues following protocols provided by SoluLink. After conjugation, the peptide/DIII ratio was determined by measuring A354nm to be an average of 2 CEA specific peptides for every DIIIb molecule and the conjugate was soluble in aqueous solutions. Size exclusion chromatography using Superdex 200 column (GE Healthcare Piscataway, N.J.) was used for purification. Purified anti-CEA peptide-DIIIb conjugates were then radiolabeled with ^124I and injected intravenously in four athymic nude mice bearing LS174T (CEA positive) and C6 (CEA negative) tumors. Mice were imaged by small animal PET/CT at 4, 20 and 27 h, after which mice were euthanized, dissected and tissues/organs were counted in a gamma well counter.

In series [3] the test system is LS174T (CEA positive) tumor. The format is in vivo, athymic nude mice. The method, then:
as §1

As for “DIII WT: HSA domain III wild type (amino acid residues 384 to 585)”, in series [1], the “AUC (time integral of the blood uptake)” value was found to be 474.8 % ID/g × h, the “Aα (amplitude)” value came out at 36.2 % ID/g, the “Aβ (amplitude)” value worked out at 16.81 % ID/g and the k1 was found to be 0.3479. In series [1], this molecule displayed a k2 of 0.04534 and a t1/2α of 1.99 h.
On to “DIII H464A: HSA domain III variant with H464 mutated to alanine”, for which, in series [1], the “AUC (time integral of the blood uptake)” value was 199 % ID/g × h, the “Aα (amplitude)” value is on record as 44.95 % ID/g, the “Aβ (amplitude)” value worked out at 11.41 % ID/g and the k1 is 1.438. In series [1], this molecule yielded a k2 of 0.068, a t1/2α of 0.482 h and a t1/2β of 10.2 h.
Take “SDWVCEFIKSQWFCNVLASG [CEA specific, cyclic peptide, reference compound]”: the “Solubility in aqueous solution” value in series [2] is recorded as “precipitated”.

B1: anti-CEA peptide-DIIIb conjugate: CEA specific cyclic peptide (HyNic) conjugated to 4FB-modified DIIIb, average of 2 peptides per DIIIb (conjugate)
chain: HADICTLSEKERQIKKQTALVELVKHKPKATKEQLKAVMDDFAAFVEKCCKADDKETCFAEEGKKLVAASQAALGL
peptide: SDWVCEFIKSQWFCNVLASG
modifications: cyclised or stapled
notes: CEA specific cyclic peptide (HyNic) conjugated to 4FB-modified DIIIb, average of 2 peptides per DIIIb
Take B1: in series [3] (27 h), the “(CEA positive) tumor/(CEA negative) tumor ratio” value was 1.2, the Tumor/muscle ratio was found to be 5.1 and the tumor/blood ratio is 0.51. Besides, the “Targeting of CEA positive tumor” value in series [3] (PET/CT images) is “target the CEA positive tumor”. In series [3] (mouse, in vivo), the Blood was 3.00 % ID/g, the “C6 Tumor” value amounted to 1.26 % ID/g, the Carcass is reported as 0.56 % ID/g and the Kidneys stood at 3.66 % ID/g. Moreover, in series [3] (mouse, in vivo), the “LS174T Tumor” value amounted to 1.53 % ID/g, the Liver turned out to be 1.42 % ID/g, the Lungs worked out at 2.36 % ID/g and the Muscle is given as 0.30 % ID/g. In series [3] (mouse, in vivo), this molecule returned a Spleen of 1.04 % ID/g and a Stomach of 1.07 % ID/g. Moreover, in series [2], the “Solubility in aqueous solution” value is “soluble”.
